# Measured values from patent US20240350583A1, “COMPOSITION FOR PREVENTING OR TREATING FIBROTIC DISEASES, COMPRISING HAPLN1” (Chung Ang University Industry Academic Cooperation …, priority 2021, published 2024).
# Experiments:
# [1] = system: ischemia/reperfusion-induced kidney fibrosis; experiment: Ischemia/reperfusion kidney fibrosis mouse model; type: in vivo
# Description: According to the experimental scheme of FIG. 14A, 8-week-old C57BL/6 male mice were subjected to pentobarbital (50 mg/kg BW, i.p.) anesthesia, a flank incision was made to induce ischemia, the kidneys were exposed, and blood flow was blocked for 25 minutes by clamping the bilateral renal pedicles using a non-traumatic microaneurysm clamp (Roboz Surgical Instruments). The clamps were then removed and the incisions were sutured. The sham-operation was performed in the same manner as the ischemia/reperfusion experiment, except for the blockage of blood flow.
# One day after ischemia, blood urea nitrogen (BUN) was measured, and only mice whose value rose above about 98 mg/dL (specified as 100 mg/dl from now on) were grouped into experimental groups and the experiment was conducted. The experimental groups were administered various drugs, including the composition of the present disclosure, daily from day 7 after surgery, and the kidneys were harvested on day 14 for histologic and biochemical analysis.
# In addition, blood was taken on day 7 after drug administration to measure BUN concentration, and 14 days later, blood and urine were taken to measure creatinine concentration in blood and urine and BUN concentration in blood. Additionally, creatinine clearance was calculated.
# Biochemical analysis (evaluation of fibrosis index expression): To confirm the expression of αSMA in kidney tissue, western blot was performed using antibodies against αSMA.
# To confirm the expression of αSMA in sham-operation (Sham) and ischemia/reperfusion (IR) mouse kidney tissue, samples from each experimental group were loaded onto a single gel, western blot was performed, and the density of each band was measured. Ponceau and GADPH were utilized as equal loading markers (FIG. 14B). Where SV; sham-vehicle, SB; sham-rhHAPLN1-dissolving solution, IRV; IR-vehicle, IRP; IR-pirfenidone, IRA; IR-composition of the present disclosure (rhHAPLN1) A, IRB; IR-composition of the present disclosure (rhHAPLN1) B, IRC; IR-composition of the present disclosure (rhHAPLN1) C, respectively, and more details are shown in Table 1 and Table 2 above. More specifically, the Sham-vehicle is a group in which only the rhHAPLNB1-free buffer solution was diluted in PBS and IP-injected into the Sham control group. Sham-rhHAPLN1-dissolving solution is a group in which rhHAPLN1 concentration B (0.02 mg/kg) was diluted and IP injected to confirm the effect of rhHAPLN1 under normal conditions. […] IR-pirfenidone is a group in which 300 mg/kg of pirfenidone was administered orally after induction of I/R fibrosis.
# In addition, the fold change in expression level for IRV in relation to αSMA expression was graphed (FIG. 14C).
# As part of the histological analysis of fibrosis, paraffin-fixed kidneys were cut into 3 μm sections, and Sirus red and PAS staining were performed on these slide sections to assess collagen expression and fibrotic lesions in the tissue, respectively (FIG. 14D). Where SV; sham-vehicle, SB; sham-rhHAPLN1-dissolving solution, IRV; IR-vehicle, IRP; IR-pirfenidone, IRA; IR-composition of the present disclosure (rhHAPLN1) concentration 0.1 mg/kg, IRB; IR- the composition of the present disclosure (rhHAPLN1) at a concentration of 0.02 mg/kg, IRC; IR-the composition of the present disclosure (rhHAPLN1) at a concentration of 0.004 mg/kg, respectively.
# In addition, in order to quantify the expression of collagen in the above-mentioned tissue, two of the outer medulla areas of the kidney were randomly imaged in the tissue staining photograph of FIG. 14D, and collagen-positive area was marked. Here, the red color is a sirus red positive signal (FIG. 14E).
# As an experiment to analyze kidney function, blood was taken through a glass capillary tube with heparin added through the retroorbital vein plexus, and urine was obtained using a metabolic cage. Blood urea nitrogen and creatinine (plasma creatinine, PCr) concentrations were measured using Vitros250 (Johnson & Johnson). […]
# [2] = system: normal human dermal fibroblast (NHDF); experiment: TGFβ1-induced fibrosis of human dermal fibroblasts, αSMA western blot; type: cell-based
# Description: (1) Human dermal fibroblasts (normal human dermal fibroblast, NHDF) were seeded (1.0×10^5 cells/well) in a 6-well plate and incubated in FBM-2 (fibroblast growth medium-2, CC-3131, Lonza) medium for 24 hours in an incubator at 37° C. 5% CO2.
# (2) After replacing with serum-free medium, the medium was incubated for 24 hours.
# (3) In this regard, under conditions in which fibrosis was induced by treatment with TGFβ1 (10 ng/ml), each well of the plate was treated with the composition of the present disclosure based on Preparation Example 2 but with rhHAPLN1 protein content of 0, 3, 10, 30, and 100 ng/ml and 100 μg/mL and 200 μg/mL of pirfenidone (Selleckchem), a commercially available anti-fibrotic agent, respectively, and incubated for 24 hours.
# (4) Afterwards, each sample was washed twice with phosphate buffered saline (PBS, pH 7.2), and then the expression level of αSMA, a marker for myofibroblasts, was confirmed by western blot.
# [3] = system: human kidney renal tubule cell (Human Kidney 2, HK-2); experiment: Cell morphological changes of TGFβ1-treated HK-2 cells; type: cell-based; settings: TGFβ1 10 ng/ml 24 h
# Description: (1) Human kidney renal tubule cells (HK-2) were seeded (3.0×10^5 cells/well) in a 6-well plate according to the experimental scheme of FIG. 8A and incubated in RPMI 1640 Medium (11875-093, Gibco) including 10% FBS for 24 hours in an incubator at 37° C. 5% CO2.
# (2) Afterwards, the plates were washed several times with PBS, and each well of the plate was treated with TGFβ1 (10 ng/ml) and incubated for 24 hours.
# (3) Subsequently, the plates were then treated with the composition of the present disclosure (rhHAPLN1 protein content of 0, 5, 10, 20, 50 and 100 ng/ml) and pirfenidone 0.2 mg/mL (200 μg/mL), respectively, and incubated for 24 hours.
# (4) The wells containing each sample were then washed twice with 1×PBS, treated with 4% paraformaldehyde and fixed for 1 hour.
# (5) After washing twice with 1×PBS, the shape or morphology of the cells was observed under a microscope.
# [4] = IRP: pirfenidone 300 mg/kg B.W oral
# [5] = IRA: rhHAPLN1 0.1 mg/kg B.W intraperitoneal
# [6] = IRB: rhHAPLN1 0.02 mg/kg B.W intraperitoneal
Molecule,"collagen positive area compared to IRV, quantified with i-Solution (FIG. 14F) [1, 4]","expression of collagen compared to IRV, blinded test of stained photographs (FIG. 14D) [1, 4]","expression level of αSMA at 200 μg/mL versus 100 μg/mL ([2]; pirfenidone 200 μg/mL, TGFβ1 10 ng/ml)","optimal anti-fibrotic concentration (assumed) ([2]; αSMA, TGFβ1 10 ng/ml)",cell morphology after TGFβ1-induced sharp fibrotic form (FIG. 8B) ([3]; then pirfenidone 0.2 mg/mL 24 h),"collagen positive area compared to IRV, quantified with i-Solution (FIG. 14F) [1, 5]","expression of collagen compared to IRV, blinded test of stained photographs (FIG. 14D) [1, 5]","expression of αSMA in kidney compared to IRV (FIG. 14C) [1, 5]","collagen positive area compared to IRV, quantified with i-Solution (FIG. 14F) [1, 6]","expression of collagen compared to IRV, blinded test of stained photographs (FIG. 14D) [1, 6]","expression of αSMA in kidney compared to IRV (FIG. 14C) [1, 6]",expression of αSMA in kidney compared to IRV (FIG. 14C) ([1]; IRC: rhHAPLN1 0.004 mg/kg B.W intraperitoneal),"expression level of αSMA compared to composition that does not include rhHAPLN1 protein (FIG. 1B) ([2]; TGFβ1 10 ng/ml, all rhHAPLN1 contents 3, 10, 30, 100 ng/ml, 24 hours)","anti-fibrotic action from αSMA western blot band, compared to pirfenidone (FIG. 1A) ([2]; TGFβ1 10 ng/ml, pirfenidone 100 and 200 μg/mL)","rhHAPLN1 protein content showing the most excellent anti-fibrotic efficacy ([2]; TGFβ1 10 ng/ml, αSMA)","anti-fibrotic efficacy higher than pirfenidone at 100 μg/mL ([2]; rhHAPLN1 100 ng/ml, αSMA)",cell morphology after TGFβ1-induced sharp fibrotic form (FIG. 8B) ([3]; then rhHAPLN1 5-100 ng/ml 24 h)
"Cc1ccc(=O)n(-c2ccccc2)c1 [pirfenidone, reference compound]",weaker,weaker,higher expression level of αSMA than 100 μg/mL,100 µg/mL,round,,,,,,,,,,,,
"rhHAPLN1: recombinant human HAPLN1 protein of SEQ ID NO: 1 produced in CHO-K1 cells, stabilized in acetic acid buffer, sucrose, PS80, pH 5.0 (protein, listed as Homo sapiens) MKSLLLLVLISICWADHLSDNYTLDHDRAIHIQAENGPHLLVEAEQAKVFSHRGGNVTLPCKFYRDPTAFGSGIHKIRIKWTKLTSDYLKEVDVFVSMGYHKKTYGGYQGRVFLKGGSDSDASLVITDLTLEDYGRYKCEVIEGLEDDTVVVALDLQGVVFPYFPRLGRYNLNFHEAQQACLDQDAVIASFDQLYDAWRGGLDWCNAGWLSDGSVQYPITKPREPCGGQNTVPGVRNYGFWDKDKSRYDVFCFTSNFNGRFYYLIHPTKLTYDEAVQACLNDGAQIAKVGQIFAAWKILGYDRCDAGWLADGSVRYPISRPRRRCSPTEAAVRFVGFPDKKHKLYGVYCFRAYN",,,,,,weaker,weaker,lowered to pirfenidone-like levels,weaker,weaker,lowered to pirfenidone-like levels,as high as the IRV,significantly lower,much better anti-fibrotic action than pirfenidone,100 ng/mL,25%,the shape of the cells changed to round
